Laboratory results from publication doi:10.1101/2023.09.23.559074, “Direct ionic stress sensing and mitigation by the transcription factor NFAT5” (bioRxiv, 2023).

B1: GFP-CTD (superfolder GFP fused to the C-terminal domain of NFAT5, a.a. 544-1531) (domain or fragment, human, UniProt O94916 544-1531, looked up)
chain: DPAAAGALNVNVKKEISSPARPCSFEEAMKAMKTTGCNLDKVNIIPNALMTPLIPSSMIKSEDVTPMEVTAEKRSSTIFKTTKSVGSTQQTLENISNIAGNGSFSSPSSSHLPSENEKQQQIQPKAYNPETLTTIQTQDISQPGTFPAVSASSQLPNSDALLQQATQFQTRETQSREILQSDGTVVNLSQLTEASQQQQQSPLQEQAQTLQQQISSNIFPSPNSVSQLQNTIQQLQAGSFTGSTASGSSGSVDLVQQVLEAQQQLSSVLFSAPDGNENVQEQLSADIFQQVSQIQSGVSPGMFSSTEPTVHTRPDNLLPGRAESVHPQSENTLSNQQQQQQQQQQVMESSAAMVMEMQQSICQAAAQIQSELFPSTASANGNLQQSPVYQQTSHMMSALSTNEDMQMQCELFSSPPAVSGNETSTTTTQQVATPGTTMFQTSSSGDGEETGTQAKQIQNSVFQTMVQMQHSGDNQPQVNLFSSTKSMMSVQNSGTQQQGNGLFQQGNEMMSLQSGNFLQQSSHSQAQLFHPQNPIADAQNLSQETQGSLFHSPNPIVHSQTSTTSSEQMQPPMFHSQSTIAVLQGSSVPQDQQSTNIFLSQSPMNNLQTNTVAQEAFFAAPNSISPLQSTSNSEQQAAFQQQAPISHIQTPMLSQEQAQPPQQGLFQPQVALGSLPPNPMPQSQQGTMFQSQHSIVAMQSNSPSQEQQQQQQQQQQQQQQQQQSILFSNQNTMATMASPKQPPPNMIFNPNQNPMANQEQQNQSIFHQQSNMAPMNQEQQPMQFQSQSTVSSLQNPGPTQSESSQTPLFHSSPQIQLVQGSPSSQEQQVTLFLSPASMSALQTSINQQDMQQSPLYSPQNNMPGIQGATSSPQPQATLFHNTAGGTMNQLQNSPGSSQQTSGMFLFGIQNNCSQLLTSGPATLPDQLMAISQPGQPQNEGQPPVTTLLSQQMPENSPLASSINTNQNIEKIDLLVSLQNQGNNLTGSF
notes: NFAT5 (TonEBP), human, 1531 a.a. protein; C-terminal domain (CTD), a.a; 544-1531; The methods for the bacterial construct (pET-28a) say only 'NFAT5 CTD'; also called GFP-NFAT5 CTD; NFAT5 GFP-CTD; not shown: sfGFP, N-terminal, kept
B2: untagged NFAT5 CTD (CTD protein lacking the GFP tag) (domain or fragment, human, UniProt O94916 544-1531, looked up)
chain: DPAAAGALNVNVKKEISSPARPCSFEEAMKAMKTTGCNLDKVNIIPNALMTPLIPSSMIKSEDVTPMEVTAEKRSSTIFKTTKSVGSTQQTLENISNIAGNGSFSSPSSSHLPSENEKQQQIQPKAYNPETLTTIQTQDISQPGTFPAVSASSQLPNSDALLQQATQFQTRETQSREILQSDGTVVNLSQLTEASQQQQQSPLQEQAQTLQQQISSNIFPSPNSVSQLQNTIQQLQAGSFTGSTASGSSGSVDLVQQVLEAQQQLSSVLFSAPDGNENVQEQLSADIFQQVSQIQSGVSPGMFSSTEPTVHTRPDNLLPGRAESVHPQSENTLSNQQQQQQQQQQVMESSAAMVMEMQQSICQAAAQIQSELFPSTASANGNLQQSPVYQQTSHMMSALSTNEDMQMQCELFSSPPAVSGNETSTTTTQQVATPGTTMFQTSSSGDGEETGTQAKQIQNSVFQTMVQMQHSGDNQPQVNLFSSTKSMMSVQNSGTQQQGNGLFQQGNEMMSLQSGNFLQQSSHSQAQLFHPQNPIADAQNLSQETQGSLFHSPNPIVHSQTSTTSSEQMQPPMFHSQSTIAVLQGSSVPQDQQSTNIFLSQSPMNNLQTNTVAQEAFFAAPNSISPLQSTSNSEQQAAFQQQAPISHIQTPMLSQEQAQPPQQGLFQPQVALGSLPPNPMPQSQQGTMFQSQHSIVAMQSNSPSQEQQQQQQQQQQQQQQQQQSILFSNQNTMATMASPKQPPPNMIFNPNQNPMANQEQQNQSIFHQQSNMAPMNQEQQPMQFQSQSTVSSLQNPGPTQSESSQTPLFHSSPQIQLVQGSPSSQEQQVTLFLSPASMSALQTSINQQDMQQSPLYSPQNNMPGIQGATSSPQPQATLFHNTAGGTMNQLQNSPGSSQQTSGMFLFGIQNNCSQLLTSGPATLPDQLMAISQPGQPQNEGQPPVTTLLSQQMPENSPLASSINTNQNIEKIDLLVSLQNQGNNLTGSF
notes: NFAT5 (TonEBP), human, 1531 a.a. protein; C-terminal domain (CTD), a.a; 544-1531; source: E. coli BL21 (DE3) pLysS, purified from inclusion bodies (8 M urea extraction, Superdex 200)
B3: GFP-PLD (superfolder GFP fused to the prion-like domain of NFAT5, a.a. 999-1454) (domain or fragment, human, UniProt O94916 999-1454, looked up)
chain: QIQNSVFQTMVQMQHSGDNQPQVNLFSSTKSMMSVQNSGTQQQGNGLFQQGNEMMSLQSGNFLQQSSHSQAQLFHPQNPIADAQNLSQETQGSLFHSPNPIVHSQTSTTSSEQMQPPMFHSQSTIAVLQGSSVPQDQQSTNIFLSQSPMNNLQTNTVAQEAFFAAPNSISPLQSTSNSEQQAAFQQQAPISHIQTPMLSQEQAQPPQQGLFQPQVALGSLPPNPMPQSQQGTMFQSQHSIVAMQSNSPSQEQQQQQQQQQQQQQQQQQSILFSNQNTMATMASPKQPPPNMIFNPNQNPMANQEQQNQSIFHQQSNMAPMNQEQQPMQFQSQSTVSSLQNPGPTQSESSQTPLFHSSPQIQLVQGSPSSQEQQVTLFLSPASMSALQTSINQQDMQQSPLYSPQNNMPGIQGATSSPQPQATLFHNTAGGTMNQLQNSPGSSQQTSGMFLFGIQNN
notes: NFAT5 (TonEBP), human, 1531 a.a. protein; prion-like domain (PLD), a.a; 999-1454; The methods for the bacterial construct say only 'NFAT5 PLD'; also called GFP-NFAT5 PLD; not shown: sfGFP, N-terminal, kept
B4: untagged NFAT5 PLD (PLD protein lacking the GFP tag) (domain or fragment, human, UniProt O94916 999-1454, looked up)
chain: QIQNSVFQTMVQMQHSGDNQPQVNLFSSTKSMMSVQNSGTQQQGNGLFQQGNEMMSLQSGNFLQQSSHSQAQLFHPQNPIADAQNLSQETQGSLFHSPNPIVHSQTSTTSSEQMQPPMFHSQSTIAVLQGSSVPQDQQSTNIFLSQSPMNNLQTNTVAQEAFFAAPNSISPLQSTSNSEQQAAFQQQAPISHIQTPMLSQEQAQPPQQGLFQPQVALGSLPPNPMPQSQQGTMFQSQHSIVAMQSNSPSQEQQQQQQQQQQQQQQQQQSILFSNQNTMATMASPKQPPPNMIFNPNQNPMANQEQQNQSIFHQQSNMAPMNQEQQPMQFQSQSTVSSLQNPGPTQSESSQTPLFHSSPQIQLVQGSPSSQEQQVTLFLSPASMSALQTSINQQDMQQSPLYSPQNNMPGIQGATSSPQPQATLFHNTAGGTMNQLQNSPGSSQQTSGMFLFGIQNN
notes: NFAT5 (TonEBP), human, 1531 a.a. protein; prion-like domain (PLD), a.a; 999-1454; source: E. coli BL21 (DE3) pLysS, purified from inclusion bodies (8 M urea extraction, Superdex 200)

Target: the molecule itself
Assay: in vitro phase separation (droplet) assay, fluorescence or brightfield microscopy; purified protein in droplet buffer (20 mM Na-HEPES pH 7.4, 1 mM TCEP) with 5% dextran, NaCl (or other salts) added to the indicated osmolarity; 10 min at room temperature; self-association into droplets

Binding result, binds:
B1
B2
B3
B4
